# Source: paper PMC11711546 (2024)
# B1: TSHZ3-HA wild-type (teashirt zinc finger homeobox 3) [human] / MYOCD-Flag (myocardin) [not stated] (parent complex)
# chain 1: MPRRKQQAPRRAAAYVSEELKAAALVDEGLDPEEHTADGEPSAKYMCPEKELARACPSYQNSPAAEFSCHEMDSESHISETSDRMADFESGSIKNEEETKEVTVPLEDTTVSDSLEQMKAVYNNFLSNSYWSNLNLNLHQPSSEKNNGSSSSSSSSSSSCGSGSFDWHQSAMAKTLQQVSQSRMLPEPSLFSTVQLYRQSSKLYGSIFTGASKFRCKDCSAAYDTLVELTVHMNETGHYRDDNHETDNNNPKRWSKPRKRSLLEMEGKEDAQKVLKCMYCGHSFESLQDLSVHMIKTKHYQKVPLKEPVTPVAAKIIPATRKKASLELELPSSPDSTGGTPKATISDTNDALQKNSNPYITPNNRYGHQNGASYAWHFEARKSQILKCMECGSSHDTLQELTAHMMVTGHFIKVTNSAMKKGKPIVETPVTPTITTLLDEKVQSVPLAATTFTSPSNTPASISPKLNVEVKKEVDKEKAVTDEKPKQKDKPGEEEEKCDISSKYHYLTENDLEESPKGGLDILKSLENTVTSAINKAQNGTPSWGGYPSIHAAYQLPNMMKLSLGSSGKSTPLKPMFGNSEIVSPTKNQTLVSPPSSQTSPMPKTNFHAMEELVKKVTEKVAKVEEKMKEPDGKLSPPKRATPSPCSSEVGEPIKMEASSDGGFRSQENSPSPPRDGCKDGSPLAEPVENGKELVKPLASSLSGSTAIITDHPPEQPFVNPLSALQSVMNIHLGKAAKPSLPALDPMSMLFKMSNSLAEKAAVATPPPLQSKKADHLDRYFYHVNNDQPIDLTKGKSDKGCSLGSVLLSPTSTAPATSSSTVTTAKTSAVVSFMSNSPLRENALSDISDMLKNLTESHTSKSSTPSSISEKSDIDGATLEEAEESTPAQKRKGRQSNWNPQHLLILQAQFAASLRQTSEGKYIMSDLSPQERMHISRFTGLSMTTISHWLANVKYQLRRTGGTKFLKNLDTGHPVFFCNDCASQIRTPSTYISHLESHLGFRLRDLSKLSTEQINSQIAQTKSPSEKMVTSSPEEDLGTSYQCKLCNRTFASKHAVKLHLSKTHGKSPEDHLLYVSELEKQ
# chain 2: MTLLGSEHSLLIRSKFRSVLQLRLQQRRTQEQLANQGIIPPLKRPAEFHEQRKHLDSDKAKNSLKRKARNRCNSADLVNMHILQASTAERSIPTAQMKLKRARLADDLNEKIALRPGPLELVEKNILPVDSAVKEAIKGNQVSFSKSTDAFAFEEDSSSDGLSPDQTRSEDPQNSAGSPPDAKASDTPSTGSLGTNQDLASGSENDRNDSASQPSHQSDAGKQGLGPPSTPIAVHAAVKSKSLGDSKNRHKKPKDPKPKVKKLKYHQYIPPDQKAEKSPPPMDSAYARLLQQQQLFLQLQILSQQQQQQQHRFSYLGMHQAQLKEPNEQMVRNPNSSSTPLSNTPLSPVKNSFSGQTGVSSFKPGPLPPNLDDLKVSELRQQLRIRGLPVSGTKTALMDRLRPFQDCSGNPVPNFGDITTVTFPVTPNTLPNYQSSSSTSALSNGFYHFGSTSSSPPISPASSDLSVAGSLPDTFNDASPSFGLHPSPVHVCTEESLMSSLNGGSVPSELDGLDSEKDKMLVEKQKVINELTWKLQQEQRQVEELRMQLQKQKRNNCSEKKPLPFLAASIKQEEAVSSCPFASQVPVKRQSSSSECHPPACEAAQLQPLGNAHCVESSDQTNVLSSTFLSPQCSPQHSPLGAVKSPQHISLPPSPNNPHFLPSSSGAQGEGHRVSSPISSQVCTAQMAGLHSSDKVGPKFSIPSPTFSKSSSAISEVTQPPSYEDAVKQQMTRSQQMDELLDVLIESGEMPADAREDHSCLQKVPKIPRSSRSPTAVLTKPSASFEQASSGSQIPFDPYATDSDEHLEVLLNSQSPLGKMSDVTLLKIGSEEPHFDGIMDGFSGKAAEDLFNAHEILPGPLSPMQTQFSPSSVDSNGLQLSFTESPWETMEWLDLTPPNSTPGFSALTTSSPSIFNIDFLDVTDLNLNSSMDLHLQQW
# B2: TSHZ3-HA wild-type (teashirt zinc finger homeobox 3) [human] / SOX9-Flag (SRY-box transcription factor 9) [not stated] (parent complex)
# chain 1: B1 chain 1
# chain 2: MNLLDPFMKMTDEQEKGLSGAPSPTMSEDSAGSPCPSGSGSDTENTRPQENTFPKGEPDLKKESEEDKFPVCIREAVSQVLKGYDWTLVPMPVRVNGSSKNKPHVKRPMNAFMVWAQAARRKLADQYPHLHNAELSKTLGKLWRLLNESEKRPFVEEAERLRVQHKKDHPDYKYQPRRRKSVKNGQAEAEEATEQTHISPNAIFKALQADSPHSSSGMSEVHSPGEHSGQSQGPPTPPTTPKTDVQPGKADLKREGRPLPEGGRQPPIDFRDVDIGELSSDVISNIETFDVNEFDQYLPPNGHPGVPATHGQVTYTGSYGISSTAATPASAGHVWMSKQQAPPPPPQQPPQAPPAPQAPPQPQAAPPQQPAAPPQQPQAHTLTTLSSEPGQSQRTHIKTEQLSPSHYSEQQQHSPQQIAYSPFNLPHYSPSYPPITRSQYDYTDHQNSSSYYSHAAGQGTGLYSTFTYMNPAQRPMYTPIADTSGVPSIPQTHSPQHWEQPVYTQLTRP
# Variants of: B1
# Test: co-immunoprecipitation (anti-HA beads), Western blot densitometry; parent: 1; read off a plot
row,Variant,response
1,chain 1 S58G,~1.9 MYOCD-Flag / TSHZ3-HA in IP
2,chain 1 P63L,~1.6 MYOCD-Flag / TSHZ3-HA in IP
3,chain 1 A65T,~1.5 MYOCD-Flag / TSHZ3-HA in IP

# Variants of: B2
# Test: as above
row,Variant,response
1,chain 1 A65T,~1.4 SOX9-Flag / TSHZ3-HA in IP
2,chain 1 P63L,~1.1 SOX9-Flag / TSHZ3-HA in IP
3,chain 1 S58G,~0.46 SOX9-Flag / TSHZ3-HA in IP
